Key:
[1] = target: Beta-galactosidase (β-gal) (Escherichia coli, UniProt P00722); conditions: ~12 uM peptide, ~3 nM β-gal
Description: (§1) Beta-galactosidase (β-gal) (˜3 nM, Alexa647 labeled, the target) was preincubated with a solution containing ˜12 uM of the peptide “[…]” (the ligand). […] The complex between β-gal and the peptide complex was incubated with a […] 10,000 random sequence peptides (the “test molecules”) bound to the surface of a glass slide in an ordered fashion. The incubation took place for two hours and the binding pattern of this was compared to the binding pattern using only the labeled enzyme and no ligand.

β-gal enzyme = β-gal enzyme (Escherichia coli, UniProt P00722); conditions: ~12 uM peptide
β-gal enzyme, sequence (P00722 2-1024): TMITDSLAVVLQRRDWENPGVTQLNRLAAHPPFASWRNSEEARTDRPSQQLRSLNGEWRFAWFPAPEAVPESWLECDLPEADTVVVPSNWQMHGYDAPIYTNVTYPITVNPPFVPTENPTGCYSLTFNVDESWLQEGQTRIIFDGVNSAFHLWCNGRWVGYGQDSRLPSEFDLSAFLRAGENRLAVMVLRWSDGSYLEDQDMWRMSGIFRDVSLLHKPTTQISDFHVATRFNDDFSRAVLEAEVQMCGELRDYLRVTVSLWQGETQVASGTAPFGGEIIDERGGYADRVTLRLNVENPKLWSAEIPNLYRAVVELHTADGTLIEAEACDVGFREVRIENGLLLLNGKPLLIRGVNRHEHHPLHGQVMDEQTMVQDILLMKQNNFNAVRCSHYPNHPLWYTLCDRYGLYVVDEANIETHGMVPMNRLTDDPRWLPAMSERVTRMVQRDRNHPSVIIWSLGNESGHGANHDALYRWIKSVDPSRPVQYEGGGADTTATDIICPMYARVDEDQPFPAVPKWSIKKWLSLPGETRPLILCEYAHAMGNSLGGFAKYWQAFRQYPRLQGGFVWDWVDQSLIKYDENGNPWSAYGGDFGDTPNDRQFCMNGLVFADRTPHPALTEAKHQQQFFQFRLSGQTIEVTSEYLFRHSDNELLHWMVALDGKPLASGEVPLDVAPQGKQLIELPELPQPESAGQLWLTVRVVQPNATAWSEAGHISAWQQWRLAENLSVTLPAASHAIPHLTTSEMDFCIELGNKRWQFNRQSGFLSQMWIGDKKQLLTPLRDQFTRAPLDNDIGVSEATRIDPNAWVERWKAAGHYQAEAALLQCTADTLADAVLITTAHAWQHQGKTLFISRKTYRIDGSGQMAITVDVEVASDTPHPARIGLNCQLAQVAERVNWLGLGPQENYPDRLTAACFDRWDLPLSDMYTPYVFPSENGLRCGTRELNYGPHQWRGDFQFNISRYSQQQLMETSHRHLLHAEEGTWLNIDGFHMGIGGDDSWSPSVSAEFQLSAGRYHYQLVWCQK
Description: as §1

[2] = isoelectric point (pI) of peptides; assay type: physicochemical

Beta-galactosidase (β-gal), sequence (P00722 2-1024): as above

Which β-gal activity inhibited [1] does the source give for RVFKRYKRWLHVSRYYFGSC here?
Its β-gal activity inhibited is 95%.

What about the “binding to the β-gal enzyme” value (β-gal enzyme) of the same sequence?
The value was “binds strongly”.

And the “isoelectric point (pI)” value [2]?
Its value is 10.6.
